In patent US20120058906A1 (published 2012):
One block for each binder: values may come before it.

Legend:
[1] = target: T1, rHuman CD44/Fc Chimera, CF (R&D Systems Cat#3660-CD) (human, UniProt P16070 21-220); assay: ECL (MSD Multi-Spot) binding, antigen spotted on plate; Fab 500 nM
T1 construct: Bought Fc chimera; Fc part of the bought chimera not given

[2] = target: T2, rHuman IGF-1 sR, CF (R&D Systems Cat#391-GR) (human, UniProt P08069 31-932); assay: as above
T2 construct: Bought soluble receptor; also called insulin-like growth factor-1 soluble receptor; IGF-R1

[3] = target: T3, rHuman P-Cadherin/Fc Chimera, CF (R&D Systems Cat#861-PC) (human, UniProt P22223 108-654); assay: as above
T3 construct: Bought Fc chimera; Fc part of the bought chimera not given

[4] = target: T4, Recombinant Human DLL4 (R&D Systems Cat#1506-D4/CF) (human, UniProt Q9NR61 27-524); assay: as above
T4 construct: Bought recombinant protein; also called delta-like protein 4

[5] = target: T5, rHuman Notch-1/Fc Chimera, CF (R&D Systems Cat#3647-TK) (human, UniProt P46531 19-526); assay: as above
T5 construct: Bought Fc chimera; Fc part of the bought chimera not given

[6] = target: T6, rHuman Erythropoietin R/Fc Chimera, CF (R&D Systems Cat#963-ER) (human, UniProt P19235 25-250); assay: as above
T6 construct: Bought Fc chimera; also called EPO R/Fc; erythropoietin receptor; Fc part of the bought chimera not given
T6 sequence: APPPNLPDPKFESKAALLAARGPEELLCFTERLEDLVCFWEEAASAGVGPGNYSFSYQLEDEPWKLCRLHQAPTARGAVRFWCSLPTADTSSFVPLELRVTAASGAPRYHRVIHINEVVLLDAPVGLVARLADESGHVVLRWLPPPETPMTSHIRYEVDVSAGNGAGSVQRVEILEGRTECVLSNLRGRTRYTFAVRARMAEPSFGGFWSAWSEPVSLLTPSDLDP

[7] = target: T1, rHuman CD44/Fc Chimera, CF (R&D Systems …); assay: ECL (MSD Multi-Spot) binding, antigen spotted on plate; Fab 0.0625 nM
[8] = target: T2, rHuman IGF-1 sR, CF (R&D Systems …); assay: as above
[9] = target: T3, rHuman P-Cadherin/Fc Chimera, CF (R&D …); assay: as above
[10] = target: T4, Recombinant Human DLL4 (R&D Systems …); assay: as above
[11] = target: T5, rHuman Notch-1/Fc Chimera, CF (R&D …); assay: as above
[12] = target: T6, rHuman Erythropoietin R/Fc Chimera, CF …; assay: as above
[13] = target: T1, rHuman CD44/Fc Chimera, CF (R&D Systems …); assay: ECL (MSD Multi-Spot) binding, antigen spotted on plate; Fab 25 nM
[14] = target: T2, rHuman IGF-1 sR, CF (R&D Systems …); assay: as above
[15] = target: T3, rHuman P-Cadherin/Fc Chimera, CF (R&D …); assay: as above
[16] = target: T4, Recombinant Human DLL4 (R&D Systems …); assay: as above
[17] = target: T5, rHuman Notch-1/Fc Chimera, CF (R&D …); assay: as above
[18] = target: T6, rHuman Erythropoietin R/Fc Chimera, CF …; assay: as above
[19] = target: T1, rHuman CD44/Fc Chimera, CF (R&D Systems …); assay: ECL (MSD Multi-Spot) binding, antigen spotted on plate; Fab 1.25 nM
[20] = target: T2, rHuman IGF-1 sR, CF (R&D Systems …); assay: as above
[21] = target: T3, rHuman P-Cadherin/Fc Chimera, CF (R&D …); assay: as above
[22] = target: T4, Recombinant Human DLL4 (R&D Systems …); assay: as above
[23] = target: T5, rHuman Notch-1/Fc Chimera, CF (R&D …); assay: as above
[24] = target: T6, rHuman Erythropoietin R/Fc Chimera, CF …; assay: as above
[25] = target: T7, rHuman ErbB2/Fc Chimera, CF (R&D Systems Cat#1129-ER) (human, UniProt P04626 23-652); assay: ECL (MSD Multi-Spot) binding, antigen spotted on plate; Fab 1000 nM
T7 construct: Bought Fc chimera; also called human epidermal growth factor 2 receptor; HER2/neu; Fc part of the bought chimera not given

[26] = target: T8, rHuman EGF R/Fc Chimera, CF (R&D Systems Cat#344-ER) (human, UniProt P00533 25-645); assay: as above
T8 construct: Bought Fc chimera; also called epidermal growth factor receptor; Fc part of the bought chimera not given

[27] = target: T1, rHuman CD44/Fc Chimera, CF (R&D Systems …); assay: as above
[28] = target: T2, rHuman IGF-1 sR, CF (R&D Systems …); assay: as above
[29] = target: T3, rHuman P-Cadherin/Fc Chimera, CF (R&D …); assay: as above
[30] = target: T4, Recombinant Human DLL4 (R&D Systems …); assay: as above
[31] = target: T5, rHuman Notch-1/Fc Chimera, CF (R&D …); assay: as above
[32] = target: T9, rHuman HGF R/c-MET/Fc Chimera, CF (R&D Systems Cat#358-MT/CF) (human, UniProt P08581 25-932); assay: as above
T9 construct: Bought Fc chimera; also called HGF R/Fc; hepatocyte growth factor receptor; Fc part of the bought chimera not given

[33] = target: T6, rHuman Erythropoietin R/Fc Chimera, CF …; assay: as above
[34] = target: T7, rHuman ErbB2/Fc Chimera, CF (R&D …); assay: ECL (MSD Multi-Spot) binding, antigen spotted on plate; Fab 10 nM
[35] = target: T8, rHuman EGF R/Fc Chimera, CF (R&D …); assay: as above
[36] = target: T1, rHuman CD44/Fc Chimera, CF (R&D Systems …); assay: as above
[37] = target: T2, rHuman IGF-1 sR, CF (R&D Systems …); assay: as above
[38] = target: T3, rHuman P-Cadherin/Fc Chimera, CF (R&D …); assay: as above
[39] = target: T4, Recombinant Human DLL4 (R&D Systems …); assay: as above
[40] = target: T5, rHuman Notch-1/Fc Chimera, CF (R&D …); assay: as above
[41] = target: T9, rHuman HGF R/c-MET/Fc Chimera, CF (R&D …); assay: as above
[42] = target: T6, rHuman Erythropoietin R/Fc Chimera, CF …; assay: as above
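Note: blank spot per well as comparator with Hit at signal to blank ratio of 4 or more.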

ECL signal [1]: 923 | ECL signal [2]: 1110 | ECL signal [3]: 815 | ECL signal [4]: 25900 | ECL signal [5]: 703 | ECL signal [6]: 828 | ECL signal [7]: 394 | ECL signal [8]: 537 | ECL signal [9]: 331 | ECL signal [10]: 1010 | ECL signal [11]: 439 | ECL signal [12]: 332 | ECL signal [13]: 570 | ECL signal [14]: 780 | ECL signal [15]: 269 | ECL signal [16]: 77900 | ECL signal [17]: 440 | ECL signal [18]: 597 | ECL signal [19]: 444 | ECL signal [20]: 674 | ECL signal [21]: 374 | ECL signal [22]: 38800 | ECL signal [23]: 312 | ECL signal [24]: 448
B1: Fab VH5-51_IGHD5-18*01>3_IGHJ4*01_G100K_G104T & V3-4_IGLJ1*01 (Fab, V domains shown)
VH: EVQLVQSGAEVKKPGESLKISCKGSGYSFTSYWIGWVRQMPGKGLEWMGIIYPGDSDTRYSPSFQGQVTISADKSISTAYLQWSSLKASDTAMYYCARRKYSYTYDYFDYWGQGTLVTVSS
VL: QTVVTQEPSFSVSPGGTVTLTCGLSSGSVSTSYYPSWYQQTPGQAPRTLIYSTNTRSSGVPDRFSGSILGNKAALTITGAQADDESDYYCVLYMGSGISYVFGTGTKVTVL
notes: Fab made in E. coli

ECL signal [25]: 1290 | ECL signal [26]: 2430 | ECL signal [27]: 1310 | ECL signal [28]: 1180 | ECL signal [29]: 2500 | ECL signal [30]: 73300 | ECL signal [31]: 1620 | ECL signal [32]: 1580 | ECL signal [33]: 1660 | ECL signal [34]: 842 | ECL signal [35]: 809 | ECL signal [36]: 887 | ECL signal [37]: 720 | ECL signal [38]: 894 | ECL signal [39]: 345000 | ECL signal [40]: 1140 | ECL signal [41]: 691 | ECL signal [42]: 1110
B2: Fab VH1-46_IGHD6-6*01_IGHJ1*01_S102A_S103P_S104F & L6_IGKJ1*01 (Fab, V domains shown)
VH: QVQLVQSGAEVKKPGASVKVSCKASGYTFTSYYMHWVRQAPGQGLEWMGIINPSGGSTSYAQKFQGRVTMTRDTSTSTVYMELSSLRSEDTAVYYCAREEYAPFSAEYFQHWGQGTLVTVSS
VL: not shown
notes: Fab made in E. coli; The heavy chain also carries the CH1 with Flag and His tags of Plasmid A, and the light chain the kappa constant region of Plasmid C
